Test results reported in patent publication US6018021.

What was measured:
[1] = target: tetanus toxoid (Clostridium tetani (strain Massachusetts / E88)) (UniProt P04958)
[2] = target: full-length recombinant TAL-H protein (38 kDa), cleaved with thrombin from a GST fusion protein (human)
[3] = target: purified human myelin basic protein (18.5 kDa) (human) (UniProt P02686)
[4] = target: full-length recombinant TAL-H protein (38 kDa), cleaved with thrombin from a GST fusion protein (human); remark: listed apart in the source

Substance	Stimulation Index [1] [S.I.]	Stimulation Index [2] [S.I.]	Stimulation Index [3] [S.I.]	3H-TdR incorporation, Stimulation Index (S.I.) [4] [S.I.]
peripheral blood lymphocytes of MS patient seventeen (cells without a defined receptor)	3.81	6.47	3.01	
peripheral blood lymphocytes of MS patient fourteen (cells without a defined receptor)				7.1
peripheral blood lymphocytes of control donor sixteen (cells without a defined receptor)				1.4
peripheral blood lymphocytes of MS patient twelve (cells without a defined receptor)				3.1
peripheral blood lymphocytes of MS patient eleven (cells without a defined receptor)				10.3
peripheral blood lymphocytes of control donor PEG (cells without a defined receptor)				0.7
peripheral blood lymphocytes of MS patient six (cells without a defined receptor)				2.9
peripheral blood lymphocytes of MS patient nine (cells without a defined receptor)				3.1
peripheral blood lymphocytes of control donor three (cells without a defined receptor)				1
peripheral blood lymphocytes of MS patient fifteen (cells without a defined receptor)	0.96	4.61	1.53	
peripheral blood lymphocytes of MS patient two (cells without a defined receptor)				4.7
peripheral blood lymphocytes of MS patient seven (cells without a defined receptor)				1.4
peripheral blood lymphocytes of control donor ten (cells without a defined receptor)				2.3
peripheral blood lymphocytes of MS patient one (cells without a defined receptor)	0.8	1.81	0.89	
peripheral blood lymphocytes of control donor PRO (cells without a defined receptor)				1
peripheral blood lymphocytes of MS patient thirteen (cells without a defined receptor)	0.79	3.95	2.25	
peripheral blood lymphocytes of MS patient five (cells without a defined receptor)				3.3
peripheral blood lymphocytes of MS patient eight (cells without a defined receptor)				4.5
peripheral blood lymphocytes of MS patient four (cells without a defined receptor)				2.7
